Experimental data taken from article PMC5549892.

Molecular target: BG505 SOSIP.664 gp140 envelope glycoprotein trimer (HIV-1 (BG505))
Test: native gel or EMSA

## BG505 SOSIP.664 gp140 envelope glycoprotein trimer (complex)
  stoichiometry N: 3
